Data set [1] has as its target Human TRF1 TRFH domain (residues 65–267) (human) (UniProt P54274). The data set is described as follows: ITC.
The data set “crystal structure” concerns the molecule itself. The data set is described as follows: crystal structure.

As to “Human TERB1 TBM (TRF1-binding motif, residues 642–656) (from UniProt Q8NA31-1 642-656) (peptide)”, in data set [1], the Kd was 5.6 µM.

B1: Human TRF1 TRFH domain (residues 65–267) (domain or fragment, UniProt P54274 65-267, looked up)
chain: GLVAEAEAVAAGWMLDFLCLSLCRAFRDGRSEDFRRTRNSAEAIIHGLSSLTACQLRTIYICQFLTRIAAGKTLDAQFENDERITPLESALMIWGSIEKEHDKLHEEIQNLIKIQAIAVCMENGNFKEAEEVFERIFGDPNSHMPFKSKLLMIISQKDTFHSFFQHFSYNHMMEKIKSYVNYVLSEKSSTFLMKAAAKVVESK
With B1, in the data set “crystal structure”, the “stoichiometry N” value came out at 2.

The values are drawn from PMC6108177 (Nature structural & molecular biology, 2017).
